Experimental findings from patent US20180344813A1, “ENGINEERED POLYPEPTIDES HAVING ENHANCED DURATION OF ACTION WITH REDUCED IMMUNOGENICITY” (priority 2016, published 2018) are described below.

The test system of one experiment is NIH/Swiss mice. Put plainly: OGTT DOA (oral glucose tolerance test duration of action). In kind it is in vivo, mouse. To be noted: NIH/Swiss mice; drug given 24 hours before OGTT.
The next experiment addresses T1, GLP-1 receptor (Rattus norvegicus, UniProt P32301).
T1 construct: functional activity was determined using cells that endogenously express GLP-1R; endogenous in cells; host or cells: rat thyroid carcinoma 6-23 (clone 6) cells
T1 sequence (P32301 22-463): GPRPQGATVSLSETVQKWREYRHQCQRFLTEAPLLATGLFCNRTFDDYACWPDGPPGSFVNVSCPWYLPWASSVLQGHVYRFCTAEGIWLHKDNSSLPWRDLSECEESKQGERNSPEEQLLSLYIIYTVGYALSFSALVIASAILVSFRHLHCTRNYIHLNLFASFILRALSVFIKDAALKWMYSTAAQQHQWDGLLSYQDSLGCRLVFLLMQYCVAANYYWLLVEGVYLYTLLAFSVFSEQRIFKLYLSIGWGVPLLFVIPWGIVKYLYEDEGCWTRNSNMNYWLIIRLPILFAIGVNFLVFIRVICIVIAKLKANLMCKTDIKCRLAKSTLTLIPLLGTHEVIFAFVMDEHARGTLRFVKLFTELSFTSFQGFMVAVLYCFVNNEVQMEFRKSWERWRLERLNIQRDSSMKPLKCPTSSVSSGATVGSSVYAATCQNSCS
The experiment in a line: GLP-1 receptor functional assay: cAMP induction (HTRF) in rat thyroid carcinoma 6-23 (clone 6) cells. In kind it is cell-based.

Method for NIH/Swiss mice: For example, duration can be performed using an oral glucose tolerance test (OGTT) in which the drug is administered to the subject at a desired time point before the glucose is administered orally(to measure drug duration of action; OGTT DOA) and glucose blood levels are measured (e.g. readily done in mice).
Drug was administered to 4-hr fasted NIH/Swiss mice. […] Blood glucose was measured with a OneTouch® Ultra® (LifeScan, Inc., a Johnson & Johnson Company, Milpitas, Calif.). *p<0.05 vs. vehicle control; ANOVA, Dunnett's test. Glucose lowering as percent lowering compared to vehicle is given (negative value indicates lowering of glucose) at 30 minutes post gavage.

B1: HGEGTFTSDLSKQLEEEAVRLFIEWLKNTGGGGSASGSLAEAKEAANAELDSYGVS DFYKRLIDKAKTVEGVEALKDAILAALP (protein)
chain: HGEGTFTSDLSKQLEEEAVRLFIEWLKNTGGGGSASGSLAEAKEAANAELDSYGVSDFYKRLIDKAKTVEGVEALKDAILAALP
Turning to B1, the “activity in OGTT DOA when dosed at t-24 hours” value with NIH/Swiss mice is “did not display 24 duration”. The “in vitro activity against the GLP-1 receptor” value in the experiment with GLP-1 receptor is “active in vitro against the GLP-1 receptor”.
